B1: OR4K15 (parent)
chain: GUUAACGGUCAUAGGCCAUGGAAACUAGGAGCACCAUUUCGCUGCCAGUGAAGAAAUGAACAAAGAAAAUCUGGGCCAGGCAGGCAUCAAAAGAAAUAGUCUUGCGCUCAACCAGAAAGUCUGUAAUCAUUUUAAGGGUA

The data set covers variants of B1. Briefly: self-cleavage, relative activity (ratio to wild type); higher = more cleavage; in vitro, sequencing; the parent is a self-cleaving ribozyme.
As for A22U C76A, the self-cleavage is 0.16. The result for C121A A140G reads 1.61. With A4U A114U the figure was 0.22; with U19A A33C, 1.31; with U12C A24G, 1.09. With C45U U132C the figure was 0.61. As to A11G A117G, the self-cleavage came out at 1.19. With U12A A63G the figure was 0.6. On to U49C A90C, for which the self-cleavage was 0.97.

In the case of G21U A118G, the self-cleavage turned out to be 1.98. Consider A118G A126C, for which the self-cleavage was 0.84. With A92G G137A the figure was 1.34. Consider A126G U139C, for which the self-cleavage was determined as 1.19. With U102A U124C the figure was 0.88; with A54U A90G, 0.85. The result for A54G A118U reads 0.84; that for G20A A62G, 1.45; that for U12C U108C, 0.03.

For A23G C121U, the self-cleavage was 2.12.

With A68G G138A, the self-cleavage is 1.67. The result for A54U U122C reads 1.27. For A86U U139G, the self-cleavage was 1.57. The result for A47G C81U reads 0.25. The result for A63G A89G reads 1.89; that for G7U G137U, 1.84; that for U43C U72A, 0.4. For A86U U131C, the self-cleavage turned out to be 1.77.

In the case of U39A U102C, the self-cleavage came to 1.55. With A59U U124C the figure was 0.69. For A5G U38A, the self-cleavage came out at 0.58. The result for U72C U120C reads 0.15. As to A94G U103C, the self-cleavage worked out at 0.69. Regarding A94G U103G, the self-cleavage is 0.03. As to A68C U130A, the self-cleavage is 0.98.

For the variant A60G A91G, the self-cleavage is 0.99. The result for A5U G44U reads 0.8; that for A33G A94G, 0.75; that for U2G U130C, 0.3. As to U70C U122C, the self-cleavage worked out at 0.09.

A18G A36G: the self-cleavage was 1.4. With U19C C85U the figure was 0.88. The result for A54G C88U reads 1.51; that for A52C A63G, 2.56; that for G29A A66G, 1.59. For the variant A30U C105U, the self-cleavage was found to be 0.4. Consider A91G A117C, for which the self-cleavage came out at 0.67. Consider A4G U132C, for which the self-cleavage was determined as 0.72. For U132A U139C, the self-cleavage was determined as 1.56. With U39C A91U, the self-cleavage stood at 1.59. Regarding A89G A117G, the self-cleavage turned out to be 1.73.

U2C A95U: the self-cleavage was determined as 0.99. As for C107U U130C, the self-cleavage is 0. The result for A117G U139C reads 1.34. For A56G A69G, the self-cleavage is 1.08. As to A64G A89U, the self-cleavage was 2.18. The result for G29C U100C reads 2.39; that for A24U A78G, 0.38; that for A94G A111G, 0.03.

Turning to A11G U43G, the self-cleavage came to 1.18.

In the case of U2C C112U, the self-cleavage is 0.

Regarding U108A U131C, the self-cleavage was determined as 0.01. Turning to A18G A110U, the self-cleavage turned out to be 1.32.

As to U19C A114C, the self-cleavage is 0.06. On to A118G U139A, for which the self-cleavage worked out at 0.92.

Regarding C32U U120C, the self-cleavage came out at 1.57.

On to A59G C112G, for which the self-cleavage worked out at 0.03. As for A78U A94G, the self-cleavage was found to be 0.33. The result for A62G U132A reads 1.9. With A24C U43C the figure was 1.9; with G79C U132C, 0.06. A59C U102C: the self-cleavage was found to be 1.51. The result for U19C A111U reads 0.07.

U2A A78G: the self-cleavage stood at 0.46. With A13G A91G the figure was 0.9; with C25U A92G, 0.6. With U37C U120C the figure was 0.84; with A118G U120C, 0.44; with G15A A62G, 0.1. The result for A68G G84A reads 2.58. On to U49A A66C, for which the self-cleavage was determined as 1.48.

In the case of A13G G20A, the self-cleavage stood at 0.94.

On to A30U U57A, for which the self-cleavage came out at 1.02. The result for G53A A89U reads 2.31; that for A89G A135G, 1.68. Consider A36U U43C, for which the self-cleavage came to 2.05. Consider U108C U120C, for which the self-cleavage came to 0.01. With A62G A110G the figure was 0.16; with U26C A140U, 0.35. With A22G G29C the figure was 2.4.

Turning to A60G A116G, the self-cleavage stood at 0.5. On to G31U A90G, for which the self-cleavage stood at 1.32.

For the variant A68U A126G, the self-cleavage was 0.6. Consider A13C A66G, for which the self-cleavage is 0.52. Consider U87C U108C, for which the self-cleavage stood at 0.01. The result for A66G A110C reads 0.37; that for A91U, 1.74.

In the case of U122G G137A, the self-cleavage is 2.2.

Consider A67G A117G, for which the self-cleavage came to 1.66. For U39A G115U, the self-cleavage came out at 0.27. With A82G U87A the figure was 0.32; with A114G U139C, 0.32. For U12C A63G, the self-cleavage was 1.43. Consider A90G A92G, for which the self-cleavage was 1.01.

Consider A117U U139C, for which the self-cleavage stood at 1.57.

Consider A24G G80C, for which the self-cleavage turned out to be 0.1.

With U12A G31A, the self-cleavage is 1.75. With U127A A135U the figure was 2.12; with A18U A89C, 0.9. For A13C A30G, the self-cleavage came to 1.49. With A62G C105U the figure was 0.14; with A78U A89G, 0.27. In the case of A116G U130C, the self-cleavage stood at 0.25.

As to C45U A78U, the self-cleavage came out at 0.33. A86U A114U: the self-cleavage turned out to be 0.11.

On to A59U A134G, for which the self-cleavage was determined as 1.02.

Turning to A52U A78G, the self-cleavage was determined as 0.24. For the variant A68C U127G, the self-cleavage stood at 2.01. With A52G U100C the figure was 2.01. With A47G A110C the figure was 0.1; with A59G A92U, 1.08. With A86G U130A the figure was 1.55; with A13U A129U, 0.73. In the case of A18G U122C, the self-cleavage is 1.32. The result for A90U U133C reads 1.61; that for A23G G44U, 1.21; that for A111G U132A, 0.02. With U108A A117G, the self-cleavage is 0.02. For the variant A110G U131C, the self-cleavage worked out at 0.08.

A64G U72A: the self-cleavage stood at 0.35. As for A51G U132A, the self-cleavage amounted to 1.68. The result for A69G G104C reads 0.01; that for G20A A59U, 0.83; that for A89U A96G, 1.73. The result for A54C A68G reads 1.03. Regarding A59U A68C, the self-cleavage is 1.35. As to A52C G84U, the self-cleavage worked out at 0.51.

With G28A C88U, the self-cleavage amounted to 2.33. With C35A the figure was 1.58; with G8A U43A, 2.05; with G20A A78G, 0.3. C46U A82G: the self-cleavage amounted to 0.94. With A51U G93A, the self-cleavage turned out to be 1.71. For the variant U122A A125G, the self-cleavage amounted to 0.55. In the case of C40A A135G, the self-cleavage stood at 1.29. Consider A92U U131C, for which the self-cleavage was determined as 1.36. For A116G A140G, the self-cleavage was determined as 0.97.

On to A118G U127C, for which the self-cleavage came to 0.24. Take U127C A134G: the self-cleavage was 1.09.

Turning to G21A U120A, the self-cleavage is 1.28.

On to C46U A98G, for which the self-cleavage came out at 0.74. With A56G A98U the figure was 2.25; with A30U U122C, 1.35; with A13G A96G, 0.9. The result for A47C A54G reads 1.5; that for A13U, 1.11. In the case of A82U A90G, the self-cleavage turned out to be 0.33. For G1U A33U, the self-cleavage worked out at 1.75. With A62G A129G the figure was 1.09; with A27U A64G, 1.58.

Take A33C A51G: the self-cleavage was 1.64. Take U26C G44U: the self-cleavage was 1.99. Regarding A4G A114G, the self-cleavage is 0.76.

In the case of U2C A23G, the self-cleavage amounted to 1.01.

As for U49A A54G, the self-cleavage came to 1.3. In the case of A67G G80A, the self-cleavage came out at 0.04. Take A98G A117G: the self-cleavage was determined as 0.81. Regarding A110G U127A, the self-cleavage turned out to be 0.15.

Values taken from the RNAGym collection of RNA variant scans (doi:10.7554/elife.90254).
